Tested on: JM109 (DE3)
Experiment: Studies of cell viability in strains expressing WF8R fusion proteins
Format: cell-based, E. coli
Conditions: JM109 (DE3) [pX28] or [pX284], intracellular expression as P10 fusion; applicants' conclusion from cell viability studies
From the text: The pX28 and pX284 were transformed into JM109 (DE3). The proteins produced in either the JM109 (DE3) [pX28] or in the JM109 (DE3) [pX284] after induction by IPTG in mid- or late-logarithmic growth phase, have been analyzed by sodium dodecyl sulfate (SDS)--polyacrylamide gel electrophoresis (SDS-PAGE). […] Studies of cell viability in these strains have shown that both strains are adversely affected with respect to growth and stability of the plasmid (these effects were more pronounced in the pX28 harboring strain). […] To avert this problem the applicants decided to protect the fusion protein from intracellular degradation, as well as to protect the cells from the toxicity of WF8R, by adding to the fusion a C-terminal end derived from E. coli β-galactosidase.

B1: WF8R: synthetic 98 amino acid antifreeze peptide with eight eleven-amino-acid repeats, modeled on winter flounder AFP, expressed in E. coli (protein)
chain: MSTASDAAAAAAATAATAAAAAAATAATAAAAAAATAATAAAAAAATAATAAAAAAATAATAAAAAAATAATAAKAAALTAANAAAAAAATAAAAARG
toxicity to the cells (growth and stability of the plasmid adversely affected): toxic to the cells
